Biological target: prostate-specific antigen (PSA) (UniProt P07288 25-261)
Assay: electrochemical impedance spectroscopy; Apt-ADA on CD-AuNFs/rGO/SPCE; charge transfer resistance rises with PSA; PBS (detection limit measurement); binding buffer details, pH and temperature not given in the material
Settings: protein: commercial; hairpin

Sequence of prostate-specific antigen (PSA) (P07288 25-261): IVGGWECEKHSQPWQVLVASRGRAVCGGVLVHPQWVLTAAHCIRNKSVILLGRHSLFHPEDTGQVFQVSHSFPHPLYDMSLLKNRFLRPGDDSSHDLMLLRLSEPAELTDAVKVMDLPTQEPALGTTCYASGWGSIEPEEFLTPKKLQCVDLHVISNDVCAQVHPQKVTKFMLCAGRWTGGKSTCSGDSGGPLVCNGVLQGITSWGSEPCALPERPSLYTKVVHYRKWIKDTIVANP

## TTTTTAATTAAAGCTCGCCATCAAATAGCTTT (structured_DNA, 5' amino-C6 coupled to 1-adamantanecarboxylic acid) [anti-PSA aptamer-adamantane conjugate (Apt-ADA)]
  binding result: binds
